Test results published in patent US20020065218A1.

How the values were obtained:
[1] = target: chimeric receptor consisting of the extracellular domain of mouse VEGFR-3 and the cytoplasmic domain of erythropoietin receptor, on Ba/F3 cells (mouse) (UniProt P35917); experiment: cell-based or functional assay
[2] = target: chimeric receptor consisting of the extracellular domain of mouse VEGFR-2 and the cytoplasmic domain of erythropoietin receptor, on Ba/F3 cells (mouse) (UniProt P35918); experiment: cell-based or functional assay
UniProt P35918, sequence (P35918 20-762, change not shown): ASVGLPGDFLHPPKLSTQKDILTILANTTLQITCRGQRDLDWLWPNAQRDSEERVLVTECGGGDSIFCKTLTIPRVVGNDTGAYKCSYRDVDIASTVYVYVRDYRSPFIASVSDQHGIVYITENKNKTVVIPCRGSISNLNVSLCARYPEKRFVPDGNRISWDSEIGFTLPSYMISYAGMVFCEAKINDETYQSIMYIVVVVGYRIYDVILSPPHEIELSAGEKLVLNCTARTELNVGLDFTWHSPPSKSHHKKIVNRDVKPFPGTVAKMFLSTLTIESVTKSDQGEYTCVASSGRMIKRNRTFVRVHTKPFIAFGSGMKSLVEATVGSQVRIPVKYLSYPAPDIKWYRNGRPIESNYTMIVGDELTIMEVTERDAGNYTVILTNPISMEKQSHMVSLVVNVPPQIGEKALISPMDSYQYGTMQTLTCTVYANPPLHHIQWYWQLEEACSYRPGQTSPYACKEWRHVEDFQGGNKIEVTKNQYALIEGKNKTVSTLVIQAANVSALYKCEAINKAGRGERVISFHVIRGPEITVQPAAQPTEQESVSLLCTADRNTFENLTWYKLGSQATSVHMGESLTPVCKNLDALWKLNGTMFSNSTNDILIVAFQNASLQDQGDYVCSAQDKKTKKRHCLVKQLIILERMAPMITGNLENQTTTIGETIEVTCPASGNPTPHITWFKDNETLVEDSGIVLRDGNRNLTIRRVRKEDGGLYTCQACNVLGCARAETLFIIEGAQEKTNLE

UniProt P35917, sequence (P35917 25-775, change not shown): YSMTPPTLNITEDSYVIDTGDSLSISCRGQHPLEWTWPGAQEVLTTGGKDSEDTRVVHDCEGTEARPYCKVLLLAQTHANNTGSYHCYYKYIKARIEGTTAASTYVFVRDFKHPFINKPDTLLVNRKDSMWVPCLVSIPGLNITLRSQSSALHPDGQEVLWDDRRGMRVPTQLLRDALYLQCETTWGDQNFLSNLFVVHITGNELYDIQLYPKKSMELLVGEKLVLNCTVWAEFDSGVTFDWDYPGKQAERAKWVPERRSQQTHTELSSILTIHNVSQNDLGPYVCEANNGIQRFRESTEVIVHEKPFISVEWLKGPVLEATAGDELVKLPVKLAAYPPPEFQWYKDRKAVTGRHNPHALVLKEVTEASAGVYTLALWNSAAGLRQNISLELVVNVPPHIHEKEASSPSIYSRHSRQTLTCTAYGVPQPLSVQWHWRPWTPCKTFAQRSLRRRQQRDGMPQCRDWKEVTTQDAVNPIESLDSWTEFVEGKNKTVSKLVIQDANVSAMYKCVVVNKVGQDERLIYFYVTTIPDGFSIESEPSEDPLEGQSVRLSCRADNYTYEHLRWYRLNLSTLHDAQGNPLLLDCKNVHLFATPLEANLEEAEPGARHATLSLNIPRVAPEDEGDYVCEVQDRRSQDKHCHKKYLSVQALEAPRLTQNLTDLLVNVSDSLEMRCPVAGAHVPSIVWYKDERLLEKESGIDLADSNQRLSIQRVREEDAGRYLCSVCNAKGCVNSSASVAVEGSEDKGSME

recombinant VEGF-CΔNΔC (from UniProt P49767 103-215) (ligand)
concentration producing near-maximal survival of Ba/F3 VEGFR-3-EpoR cells without IL-3 [1]: 3 ng/mL | concentration producing near-maximal survival of Ba/F3-NYK-EpoR cells without IL-3 [2]: 50 ng/mL

recombinant VEGF-DΔNΔC (from UniProt O43915 93-201) (ligand)
concentration producing near-maximal survival of Ba/F3 VEGFR-3-EpoR cells without IL-3 [1]: 500 ng/mL | concentration producing near-maximal survival of Ba/F3-NYK-EpoR cells without IL-3 [2]: 500 ng/mL
